From PMC9855186, “Photoautotrophic Growth Rate Enhancement of Synechocystis sp. PCC6803 by Heterologous Production of 2-Oxoglutarate:Ferredoxin Oxidoreductase from Chlorobaculum tepidum” (Biology, 2022) come the findings set out here.

Substrate in data set [1]: O=C(O)CCC(=O)C(=O)O
The experiment in a line: coupled Fd/FNR assay, NADP+ reduction at A340, Michaelis-Menten fit. Type of data set: biochemical, Chlorobaculum tepidum. Conditions: decarboxylation, 0.5 mM CoA fixed, 0.15 mM NADP+, 0.1 μM FNR, 1 μM Synechocystis Fd (slr1382), 1 mM MgCl2, 1 mM DTT, 1 mM TPP, pH 7.5, 30 °C, anaerobic, kcat per αβ-protomer. The source says: (§1) coupled Fd/FNR assay, NADP+ reduction at A340, Michaelis-Menten fit on CtOGOR (2-oxoglutarate:ferredoxin oxidoreductase)

Substrate in data set [2]: CC(C)(COP(=O)(O)OP(=O)(O)OC[C@H]1O[C@@H](n2cnc3c(N)ncnc32)[C@H](O)[C@@H]1OP(=O)(O)O)[C@@H](O)C(=O)NCCC(=O)NCCS
The data set is described as above. Type of data set: biochemical, Chlorobaculum tepidum. To be noted: decarboxylation, 5 mM 2-oxoglutarate fixed, 0.15 mM NADP+, 0.1 μM FNR, 1 μM Synechocystis Fd (slr1382), 1 mM MgCl2, 1 mM DTT, 1 mM TPP, pH 7.5, 30 °C, anaerobic, kcat per αβ-protomer.
From the text: as §1

Substrate in data set [3]: CC(C)(COP(=O)(O)OP(=O)(O)OC[C@H]1O[C@@H](n2cnc3c(N)ncnc32)[C@H](O)[C@@H]1OP(=O)(O)O)[C@@H](O)C(=O)NCCC(=O)NCCSC(=O)CCC(=O)O
Description: coupled Fd/FNR assay, NADPH decrease at A340, Michaelis-Menten fit. Type of data set: biochemical, Chlorobaculum tepidum. Conditions: carboxylation, 50 mM sodium bicarbonate fixed, 0.15 mM NADPH, 0.1 μM FNR, 1 μM Synechocystis Fd (slr1382), 1 mM MgCl2, 1 mM DTT, 1 mM TPP, pH 7.5, 30 °C, anaerobic, kcat per αβ-protomer. The source says: coupled Fd/FNR assay, NADPH decrease at A340, Michaelis-Menten fit on CtOGOR (2-oxoglutarate:ferredoxin oxidoreductase)

Substrate in data set [4]: O=C(O)C[C@H](C(=O)O)[C@@H](O)C(=O)O
The experiment in a line: NADP+ reduction at A340, Michaelis-Menten fit. Type of data set: biochemical, Synechocystis sp. PCC 6803. Conditions: decarboxylation, 0.15 mM NADP+, 10 mM HEPES pH 8.0, 40 mM MgCl2.

Substrate in data set [5]: O=C(O)CCC(=O)C(=O)O
Description: NADPH decrease at A340, Michaelis-Menten fit. To be noted: carboxylation, 50 mM sodium bicarbonate fixed, 0.15 mM NADPH, 10 mM HEPES pH 8.0, 40 mM MgCl2. Type of data set: biochemical, Synechocystis sp. PCC 6803.

For orientation: Km means the substrate concentration at which the rate is half of its maximum. As usually defined, the kcat is the maximal rate divided by the concentration of active sites. The term kcat/Km denotes the turnover number divided by the Michaelis constant.

B1: CtOGOR (2-oxoglutarate:ferredoxin oxidoreductase) (Chlorobaculum tepidum TLS) (protein)
chain 1: MSDTVILNNNDMVISKTNVSVLFAGDSGDGMQLTGTQFANTVAVYGSDLNTFPNFPSEIRPPAGTVAGVSGFQLQFGTTGVYTPGAKFDVMIAMNAAALKANLKNLHHGGIIIADTDGFDAKNLNLAGYGETNNPLEDGTLTDYTVFKIPVISLTRQALADTGLSTKIIDRCKNMFVLGVLYWLYSLPLETTIEALQSKFKNKQDIAEANIKAVKAGYNFGDETEMFSQHGRFCVPPAQKKKGVYRRVTGNEASAIGLAAAAQKAGLELFLGSYPITPASEILQTLAGLKKWGVKTFQAEDEIAGILTSIGAAYGGALAATNTSGPGLALKTEGMGLAVILELPLVIINVMRGGPSTGLPTKPEQSDLLMAMYGRHGEAPMPVIAAMSPVDCFYAAYEAAKIAVEYMTPVLCLTDGYLALSSEPMLVPSPDELASITPMFSPERKADDPPYLPYKRDERCVRPWGIPGTPGLEHRIGGLEKQNETGHVSHDPENHALMTRLRAEKVAKVADIIPDLTIDNGPEKGDLLVLGWGSTYGAIKKAVEQAREGGLDVAHAHLRYINPFPKNLGAMLGNFKKVLIPENNCGQLLSLIRDKFLIEPVGFSKVQGLPFNEMEIEEKITDILKEL
chain 2: MTDTHTCLTAKDFTSNQEPKWCPGCGDFMVLQQLKNAMAELCLKTEEVVVVSGIGCSSRLPYYINTYGVHGIHGRAMAMASGLKVARPDLSVWVGTGDGDALSIGGNHYIHTVRRNLDINVVLFNNEIYGLTKGQYSPTSKVGLRTVTSPTGVVDYPINTIALTLGAGGTFVARVMDRDGKLMKEIFKRAHNHKGTSIVEIYQNCPIFNDGAFRAFSDKERKDDTTLYLEQGQPLVFGANGSKGIYLDGFKPTVIDLEKSGVSKDDLWIHDENDLIKANILSRFFDDPNSTEEFLPRPFGIFYVEDRFTYEQALSAQIDKAQEKGEGTLEELLAGNSTWTIN
notes: heterotetramer (alpha-beta)2, 220 kDa; N-terminal His6-KorA and C-terminal strep-tagged KorB, tags kept; codon-optimised genes; E. coli BL21(DE3); Fe-S clusters and TPP reconstituted
Turning to B1, the Km in data set [1] amounted to 1689 ± 92 µM; in data set [2], 42 ± 15 µM; in data set [3], 24 ± 2 µM. The kcat is 8.4 ± 0.1 s⁻¹ in data set [1], 8.1 ± 0.2 s⁻¹ in data set [2] and 2.6 ± 0.1 s⁻¹ in data set [3]. Further, the specificity constant (kcat/Km) turned out to be 5000 ± 100 M⁻¹ s⁻¹ in data set [1], 192000 ± 2400 M⁻¹ s⁻¹ in data set [2] and 110000 ± 3500 M⁻¹ s⁻¹ in data set [3].

B2: Icd (isocitrate dehydrogenase) (Synechocystis sp. PCC 6803 substr. Kazusa) (protein)
chain: MYEKLQPPSVGSKITFVAGKPVVPNDPIIPYIRGDGTGVDIWPATELVINAAIAKAYGGREEINWFKVYAGDEACELYGTYQIFPEDTLTAIKEYGVAIKGPLTTPVGGGIRSLNVALRQIFDLYTCVRPCRYYPGTPSPHKTPEKLDIIVYRENTEDIYLGIEWAEGTEGAKKLIAYLNDELIPTTPALGKKQIRLDSGIGIKPISKTGSQRLVRRAILHAKRLPKAKQMVTLVHKGNIMKFTEGPFRDWGYELATTEFRAECVTERESWICGNKESNPDLTIEANAHMIDPGYDTLTEEKQAVIKQEVEQVLNSIWESHGNGQWKEKVMVNDRIADSIFQQIQTRPDEYSILATMNLNGDYLSDAAAAVVGGLGMGPGANIGDSAAIFEATHGTAPKHAGLDRINPGSVILSGVMMLEFMGWQEAADLIKKGIGAAIANREVTYDLARLMEPKVDKPLKCSEFAQAIVSHFDD
Consider B2, for which the Km in data set [4] stood at 121 ± 13 µM; in data set [5] it was 1003 µM.
